Measured values reported in patent EP2042517A1.
pKd: −log10 of the molar value.

Key:
[1] = biological target: FcγRIIIa on human PBMCs, heterozygous V158/F158 (human) (UniProt P08637); test: cell-based or functional assay
[2] = biological target: human V158 FcγRIIIa extracellular region fused with GST (human) (UniProt P08637); test: AlphaScreen competition
[3] = biological target: FcγRIIIa on human PBMCs, homozygous F158/F158 (human) (UniProt P08637); test: cell-based or functional assay
[4] = biological target: F158 FcγRIIIa used in SPR (human) (UniProt P08637); test: SPR
[5] = biological target: His-tagged V158 FcγRIIIa (human) (UniProt P08637); test: SPR, His-tagged receptor immobilized, antibody flowed

Substance | ADCC EC50 (DoHH-2 target cells, human PBMCs) [1] | Fold vs WT [2] | further results
wild-type rituximab (antibody) | – | – | ADCC EC50 (WIL2-S target cells, human PBMCs) [3]: 1.7 ng/mL
wild-type alemtuzumab (antibody) | 9.9 ng/mL | – | pKd [4]: 6.14; pKd [5]: 7.17
alemtuzumab V264I/I332E (antibody) | 4 ng/mL | – | –
alemtuzumab A298H (antibody) | – | 0.27 fold | –

The next lines start with results.

ADCC EC50 (DoHH-2 target cells, human PBMCs) [1] | Fold vs WT [2] | Substance | further results
3 ng/mL | – | alemtuzumab S239D/I332E (antibody) | –
– | 0.05 fold | alemtuzumab V264I/N297D/I332E (antibody) | –
